Test results taken from patent US7193044B1, “Compounds and methods for regulating apoptosis, and methods of making and screening for compounds that regulate apoptosis” (Immunogen, Inc., priority 2000, dated 2007).
Entries after “also recorded” stand apart in the source; their conditions may differ.

Assays:
HeLa cells = assay: Fluorescence-based beta-galactosidase assay of BAD-induced cell death in transfected HeLa cells; set-up: species or system human; conditions: SFM vs SFM+EGF, 12 hours
Procedure: FIG. 12(B) is a graphic representation of the results of a β-galactosidase assay. HeLa cells were co-transfected with the β-galactosidase gene and either HA-BAD (“WT”), HA-BAD S155A (“S155A”), HA-BAD S112A/S136A (“S112A/S136A”) or HA-BAD S112A/S136A/S155A (“AAA”). Transfected cells were then cultured in serum-free medium (SFM) or SFM supplemented with EGF (SFM+EGF) for 12 hours. Cell lysates were prepared and BAD-induced cell death was measured by the loss of β-galactosidase activity in a fluorescence-based assay. Fluorescence was measured at 465 nm. Results shown are the average and standard deviation of triplicate transfections (this experiment was repeated two more times with similar results). Expression levels of HA-tagged BAD and BAD mutants in transfected cell lysates were detected by anti-HA western blot analysis: HA-BAD (“WT”), HA-BAD S155A (“A”), HA-BAD S112A/S136A (“AA”), and HA-BAD S112A/S136A/S155A (“AAA”).
FIG. 12(C) is a graphic representation of the results of a β-galactosidase assay. HeLa cells were co-transfected with the β-galactosidase gene and either an empty vector (“CTL”), wild-type BAD (“WT”), the BAD S155A mutant (“S155A”) or the BAD S155D mutant (“S155D”). Cell lysates were prepared and BAD-induced cell death was measured by the loss of β-galactosidase activity in a fluorescence-based assay. Fluorescence was measured at 465 nm. Results shown are the average and standard deviation of triplicate transfections (this experiment was repeated two more times with similar results).
HeLa cells were co-transfected with the β-galactosidase gene and either wild-type BAD, BAD S155A, BAD S112A/S136A or BAD S112A/S136A/S155A. […] Cell lysates were prepared and BAD-induced cell death was measured by the loss of β-galactosidase activity in a fluorescence-based assay. […]
To measure β-gal activity, HeLa cells were plated in 12-well plates at 5×10^4 cells/well one day prior to transfection. […] Beta-gal activity was measured in extracts using a fluorogenic substrate (MUG, BIO-RAD FluorAce™ β-gal Reporter Assay, #170–3150). […]

[1] = test system: BAD phosphorylation in COS-7 cells; assay: BAD phosphorylation in COS-7 cells (western blot band-shift); format: cell-based; conditions: anti-HA western blot, listed as HA-BAD S112A/S136A
Description: Mouse FL5.12 cells were then transfected with the expression vector encoding the shorter murine BAD of SEQ ID NO:3 or one of the three BAD mutants. Total mRNA was isolated from the transfected FL5.12 cells, and reverse transcribed into cDNA. The cDNA was then subcloned into the expression vector pcDNA3 so that the amino acid sequence of the BAD or mutant BAD, encoded by the subcloned cDNA, was in-frame and operably linked to an N-terminal hemagglutinin (“HA”) epitope encoded by the expression vector. The expression vectors encoding the HA-tagged shorter murine BAD and mutant BAD were expressed in COS-7 cells. Whole cell lysates (“WCL”) were then prepared from the COS-7 cells expressing the polypeptides. The phosphorylation of the shorter murine BAD of SEQ ID NO:3 and mutant BAD were detected by a western blot of the WCL, probed with an anti-HA antibody (“anti-HA antibody”). […] Of note, each of the BAD mutants resolved as a doublet on a 16% SDS-PAGE, even though in the amino acid sequence of each of the BAD mutants one or both of the serines corresponding to Ser112 and Ser136 were mutated, i.e., substituted with alanine. […]

GST-Bcl-XL = GST-Bcl-XL (Homo sapiens, UniProt Q07817); assay: GST-Bcl-XL binding (glutathione bead pull-down) of BAD; conditions: whole cell lysate of COS-7 cells, glutathione bead precipitation, anti-HA blot
Procedure: In order to test whether the additional and novel phosphorylation site on BAD has functional significance, the effect on BAD binding to Bcl-XL was examined. Recombinant Bcl-XL tagged with the glutathione S-transferase (“GST”) moiety (“GST-Bcl-XL”) was incubated with WCL prepared from COS-7 cells expressing the double mutant HA-BAD S112A/S136A, and the HA-BAD S112A/S136A that bound to the GST-Bcl-XL was precipitated with GST beads. […] No HA-BAD S112A/S136A was precipitated with GST beads from the WCL that were not incubated with GST-Bcl-XL (FIG. 1, lane 4).
The ability of full-length BAD and mutant BAD S155A to bind Bcl-XL was also determined (FIG. 3(c)). Full-length BAD (“WT”) and mutant BAD S155A (“S155A”) were produced by in vitro translation and labeled with ^35S-methionine therein. […] Proteins bound to the beads (“Bound”) (lower panel) and samples of the reactions collected prior to incubation with the beads (“Total”) (upper panel) were analyzed by SDS-PAGE followed by autoradiography.
For Bcl-XL binding studies, GST-Bcl-XL (1 mg/ml final concentration) was added to cell lysates derived from BAD expressing cells, and incubated with rotation for two hours at 4° C. […] The beads were then washed with RIPA buffer, the proteins were separated by SDS-PAGE and associated BAD detected by probing the blot with anti-HA antibody.

GST-Bcl-XL, sequence (Q07817 whole entry): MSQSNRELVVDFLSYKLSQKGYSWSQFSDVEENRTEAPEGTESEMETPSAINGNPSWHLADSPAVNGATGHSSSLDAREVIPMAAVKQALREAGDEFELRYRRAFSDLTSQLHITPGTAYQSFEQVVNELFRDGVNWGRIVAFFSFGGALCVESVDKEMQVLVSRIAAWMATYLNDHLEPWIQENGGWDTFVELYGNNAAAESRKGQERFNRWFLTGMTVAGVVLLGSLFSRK

B1: BAD S112A/S136A: mutant of shorter murine BAD, serines corresponding to Ser112 and Ser136 substituted with alanine (protein)
chain: MFQIPEFEPSEQEDASATDRGLGPSLTEDQPGPYLAPGLLGSNIHQQGRAATNSHHGGAGAMETRSRHSAYPAGTEEDEGMEEELSPFRGRSRAAPPNLWAAQRYGRELRRMSDEFEGSFKGLPRPKSAGTATQMRQSAGWTRIIQSWWDRNLGKGGSTPSQ
modifications: left off: small tags and cut ends
notes: mutant of shorter murine BAD, serines corresponding to Ser112 and Ser136 substituted with alanine
HeLa cells
  effect of EGF stimulation on pro-apoptotic activity of the BAD mutant: also suppressed by EGF stimulation
[1]
  phosphorylation of expressed BAD mutant (lambda phosphatase-sensitive higher molecular weight band): phosphatase treatment completely eliminated the higher molecular weight band of the doublet; also recorded: do not eliminate the phosphorylation of BAD
GST-Bcl-XL
  binding to GST-Bcl-XL: only the lower molecular weight band of the doublet was detected
